Test results from patent US20240343761A1, “APELINERGIC MACROCYCLES AND USES THEREOF” (priority 2021, published 2024).
Numbered stars: 1 amine (or outer) side, 2 acyl side, 3 side chain; on linkers, the order of the positions; unused ones are H or OH. Bridge positions count the residues as written; N and C are the ends. Square brackets hold non-standard residues; d marks the D form. Ends that are not written are not given here. Hyp(OBn) = O-benzyl-4-hydroxyproline, O=C([C@@H]1C[C@@H](OCc2ccccc2)CN1[*:1])[*:2]; Alnb = Nγ-allyl-Nγ-nosyl-α,γ-diamino-butanoic acid; Oic = O=C(O)[C@@H]1C[C@@H]2CCCC[C@@H]2N1; Phe(4-Br) = N[C@@H](Cc1ccc(Br)cc1)C(=O)O; hArg = N=C(N)NCCCC[C@H](N)C(=O)O; AllylGly = C=CC[C@H](N)C(=O)O; pGlu = O=C1CC[C@@H](C(=O)O)N1; Nle = CCCC[C@H](N)C(=O)O

T1: human APJ (transfected HEK293 cells, Gαi1 BRET assay) (human, UniProt P35414 1-380)
T1 sequence (looked up): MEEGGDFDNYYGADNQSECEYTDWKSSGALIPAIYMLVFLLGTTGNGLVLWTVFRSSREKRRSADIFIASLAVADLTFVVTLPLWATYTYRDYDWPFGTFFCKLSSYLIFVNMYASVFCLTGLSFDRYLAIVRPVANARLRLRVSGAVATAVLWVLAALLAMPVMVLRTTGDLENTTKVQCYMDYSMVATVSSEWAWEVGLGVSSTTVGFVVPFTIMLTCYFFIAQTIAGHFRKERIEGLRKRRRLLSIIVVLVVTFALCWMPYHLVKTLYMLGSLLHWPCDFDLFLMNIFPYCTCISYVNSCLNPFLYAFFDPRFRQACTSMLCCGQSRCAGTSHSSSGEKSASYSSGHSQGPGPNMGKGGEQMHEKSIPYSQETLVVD

T2: YFP-tagged human APJ receptor (human, UniProt P35414 1-380)
T2 construct: whole, on cells; also called hAPJ; APJ WT; not shown: YFP tag
T2 sequence (looked up): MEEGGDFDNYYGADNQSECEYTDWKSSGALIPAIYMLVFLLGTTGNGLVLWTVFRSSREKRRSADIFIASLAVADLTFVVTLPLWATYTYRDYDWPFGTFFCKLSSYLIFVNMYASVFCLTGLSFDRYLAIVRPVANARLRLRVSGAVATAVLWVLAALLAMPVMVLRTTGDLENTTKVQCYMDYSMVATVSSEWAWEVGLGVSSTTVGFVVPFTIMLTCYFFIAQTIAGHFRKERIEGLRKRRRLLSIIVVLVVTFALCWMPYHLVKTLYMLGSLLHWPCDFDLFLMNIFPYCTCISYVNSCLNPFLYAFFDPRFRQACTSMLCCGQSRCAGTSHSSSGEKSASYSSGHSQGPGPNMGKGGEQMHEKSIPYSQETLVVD


Columns and labels:
[1] = biological target: T1, human APJ (transfected HEK293 cells, …); assay: cell-based or functional assay
[2] = biological target: T1, human APJ (transfected HEK293 cells, …); assay: cell-based or functional assay; remark: listed apart in the source
[3] = biological target: T2, YFP-tagged human APJ receptor; assay: competitive radioligand binding, HEK293-hAPJ membranes

Binder	Gαi1 Emax (%) [1] [%]	EC50 Gail [2] [nM]	Ki [3] [nM]
[pGlu]R[AllylGly]RLS[Alnb]KGP[Nle]PF (staple 3-7) [Compound 16 (KT01-123)]	102	–	–
[pGlu]R[hArg]SEPLHKRVPFP (lactam 5-9) [Compound 91 (KT03-17)]	–	4.3	9.4
[pGlu]RRSEPLHKRVPF[Hyp(OBn)] (lactam 5-9) [Compound 93 (KT03-19)]	–	47	–
[pGlu]RRK[Nle]PEHSRVPFP (lactam 4-7) [Compound 74 (AM03-38)]	–	–	261
[pGlu]R[AllylGly]RLS[AllylGly]KGP[Nle]PF (staple 3-7) [Compound 97]	101	–	–
[pGlu]RRSEPLHKRVP[Phe(4-Br)]P (lactam 5-9) [Compound 92 (KT03-15)]	–	16	–
[pGlu]RRSKPLHERVPFP (lactam 5-9) [Compound 76 (AM03-40)]	–	–	119
[pGlu]RRE[Nle]PKHSRVPFP (lactam 4-7) [Compound 75 (ABB01-105)]	–	19	59
[pGlu][hArg]RSEPLHKRVPFP (lactam 5-9) [Compound 90 (KT03-16)]	–	15	–
[pGlu]RRSEPLHKRV[Oic]FP (lactam 5-9) [Compound 78 (AM03-67)]	–	24	173
[pGlu]RRSEPLHKRVPFP (lactam 5-9) [Compound 77 (ABB01-106)]	–	6.1	6.2
KRRE[Nle]CLHCRVPFP (lactam 1-4; disulfide 6-9) [Compound 79 (AM03-68)]	–	4	0.61
H-[AllylGly]RLS[Alnb]KGP[Nle]PF (staple 1-5) [Compound 28 (KT01-135)]	106	–	–
